To fix the notation:
B1: NRC3_wobSeed72_DR2_C15G_o1 (dsDNA)
DNA 1: GCTCGAGTAGGTTAGGGGGGCATTCAGGGATGAAGAGCGATTGACAGCGTAGAATGAAGG
DNA 2: CCTTCATTCTACGCTGTCAATCGCTCTTCATCCCTGAATGCCCCCCTAACCTACTCGAGC
B2: NRC3_wobSeed72_DR2_G17T_o1 (dsDNA)
DNA 1: B1 DNA 1 with G15C, G17T
DNA 2: B1 DNA 2 with C44A, C46G
B3: NRC3_wobSeed6_DR0_G17T_o1 (dsDNA)
DNA 1: GCCCTAGCAGGCCAGGTTCACTCAAGCATTTCGCTTGCGATTGACAGCGTAGAATGAAGG
DNA 2: CCTTCATTCTACGCTGTCAATCGCAAGCGAAATGCTTGAGTGAACCTGGCCTGCTAGGGC
B4: NRC3_random_hg19_229_o1 (dsDNA)
DNA 1: GCTAAACTGTATCCACTTACCTTTCTCAGAACCTTTGCGATTGACAGCGTAGAATGAAGG
DNA 2: CCTTCATTCTACGCTGTCAATCGCAAAGGTTCTGAGAAAGGTAAGTGGATACAGTTTAGC
B5: NRC3_wobSeed110_DR4_A9T_o1 (dsDNA)
DNA 1: GCTCTGCTTGGTCAACGATGGTCAGCTAATCTGCTAGCGATTGACAGCGTAGAATGAAGG
DNA 2: CCTTCATTCTACGCTGTCAATCGCTAGCAGATTAGCTGACCATCGTTGACCAAGCAGAGC
B6: NRC3_wobSeed110_DR4_G10T_o1 (dsDNA)
DNA 1: B5 DNA 1 with T9A, G10T
DNA 2: B5 DNA 2 with C51A, A52T
B7: NRC3_wobSeed63_DR2_G10A_o1 (dsDNA)
DNA 1: GCCGAACTAAGTCACCAGGACAGTGAAGAGGTTGGAGCGATTGACAGCGTAGAATGAAGG
DNA 2: CCTTCATTCTACGCTGTCAATCGCTCCAACCTCTTCACTGTCCTGGTGACTTAGTTCGGC
B8: NRC3_wobSeed76_DR3_A16T_o1 (dsDNA)
DNA 1: GCCCTACTGGGCCAATAAGGTCATTGATGCCGATAAGCGATTGACAGCGTAGAATGAAGG
DNA 2: CCTTCATTCTACGCTGTCAATCGCTTATCGGCATCAATGACCTTATTGGCCCAGTAGGGC
B9: NRC3_wobSeed93_DR3_C13G_o1 (dsDNA)
DNA 1: GCAGTCAAAGTTGATCTAGGTAACGTAAGATATGCTGCGATTGACAGCGTAGAATGAAGG
DNA 2: CCTTCATTCTACGCTGTCAATCGCAGCATATCTTACGTTACCTAGATCAACTTTGACTGC
B10: NRC3_wobSeed99_DR4_G20C_o1 (dsDNA)
DNA 1: GCTCTCGGAGGACACGAAACGTCAGAGCTCGACATCGCGATTGACAGCGTAGAATGAAGG
DNA 2: CCTTCATTCTACGCTGTCAATCGCGATGTCGAGCTCTGACGTTTCGTGTCCTCCGAGAGC
B11: NRC3_wobSeed125_DR5_A14C_o1 (dsDNA)
DNA 1: GCCCTTACGGGTCCCTGACAGGTTATAGCATTTGGAGCGATTGACAGCGTAGAATGAAGG
DNA 2: CCTTCATTCTACGCTGTCAATCGCTCCAAATGCTATAACCTGTCAGGGACCCGTAAGGGC
B12: NRC3_wobSeed58_DR2_G10T_o1 (dsDNA)
DNA 1: GCATCGAAATGTCGTGAGGTGAGTATACAGAAAGGCGCGATTGACAGCGTAGAATGAAGG
DNA 2: CCTTCATTCTACGCTGTCAATCGCGCCTTTCTGTATACTCACCTCACGACATTTCGATGC
B13: NRC3_wobSeed58_DR2_G10C_o1 (dsDNA)
DNA 1: B12 DNA 1 with T10C
DNA 2: B12 DNA 2 with A51G
B14: NRC3_wobSeed10_DR0_A9T_o1 (dsDNA)
DNA 1: GCATCGAATGGTCGAGGTGAGTATAGAGAAAGGGAAGCGATTGACAGCGTAGAATGAAGG
DNA 2: CCTTCATTCTACGCTGTCAATCGCTTCCCTTTCTCTATACTCACCTCGACCATTCGATGC
B15: NRC3_wobSeed28_DR1_T19A_o1 (dsDNA)
DNA 1: GCCCTACTGGGCCAAAGGACATTGATTCCAATGCTCGCGATTGACAGCGTAGAATGAAGG
DNA 2: CCTTCATTCTACGCTGTCAATCGCGAGCATTGGAATCAATGTCCTTTGGCCCAGTAGGGC
B16: NRC3_wobSeed28_DR1_T19C_o1 (dsDNA)
DNA 1: B15 DNA 1 with A19C
DNA 2: B15 DNA 2 with T42G
B17: NRC3_wobSeed16_DR0_G11T_o1 (dsDNA)
DNA 1: GCCAGCCTAGTTCAGGGCCAGTATAGGAGGAACGTTGCGATTGACAGCGTAGAATGAAGG
DNA 2: CCTTCATTCTACGCTGTCAATCGCAACGTTCCTCCTATACTGGCCCTGAACTAGGCTGGC
B18: NRC3_wobSeed36_DR1_A16C_o1 (dsDNA)
DNA 1: GCCCGACTGGGGCAACGGTTACCATACTCAGTACGAGCGATTGACAGCGTAGAATGAAGG
DNA 2: CCTTCATTCTACGCTGTCAATCGCTCGTACTGAGTATGGTAACCGTTGCCCCAGTCGGGC
B19: NRC3_wobSeed135_DR5_C13G_o1 (dsDNA)
DNA 1: GCCGAACTAGGTGATTGACAGGACAGTGAATAGTAAGCGATTGACAGCGTAGAATGAAGG
DNA 2: CCTTCATTCTACGCTGTCAATCGCTTACTATTCACTGTCCTGTCAATCACCTAGTTCGGC
B20: NRC3_wobSeed101_DR4_C13A_o1 (dsDNA)
DNA 1: GCCCTTACGGGTAACTCCAGGTTATAGCATCGGAGTGCGATTGACAGCGTAGAATGAAGG
DNA 2: CCTTCATTCTACGCTGTCAATCGCACTCCGATGCTATAACCTGGAGTTACCCGTAAGGGC
B21: NRC3_wobSeed114_DR4_A14C_o1 (dsDNA)
DNA 1: GCAATACAGGGTCCTCGTAGGCCAGAGTACGCACAGGCGATTGACAGCGTAGAATGAAGG
DNA 2: CCTTCATTCTACGCTGTCAATCGCCTGTGCGTACTCTGGCCTACGAGGACCCTGTATTGC
B22: NRC3_wobSeed136_DR5_G11C_o1 (dsDNA)
DNA 1: GCTAGCCTAGCTCATTCAGGGGCCAGTATAGAAAGCGCGATTGACAGCGTAGAATGAAGG
DNA 2: CCTTCATTCTACGCTGTCAATCGCGCTTTCTATACTGGCCCCTGAATGAGCTAGGCTAGC
B23: NRC3_random_hg19_159_o1 (dsDNA)
DNA 1: GCGGTTCAACATTCAGCAAACATTGGATGATAGTTTGCGATTGACAGCGTAGAATGAAGG
DNA 2: CCTTCATTCTACGCTGTCAATCGCAAACTATCATCCAATGTTTGCTGAATGTTGAACCGC
B24: NRC3_wobSeed34_DR1_G17A_o1 (dsDNA)
DNA 1: GCATCGAAAGGTCGAAAGTGAGTATACCCACCCGAAGCGATTGACAGCGTAGAATGAAGG
DNA 2: CCTTCATTCTACGCTGTCAATCGCTTCGGGTGGGTATACTCACTTTCGACCTTTCGATGC
B25: NRC3_wobSeed82_DR3_G10C_o1 (dsDNA)
DNA 1: GCATCGAAACGTCGACGAGGTGAGTATACACCGTTTGCGATTGACAGCGTAGAATGAAGG
DNA 2: CCTTCATTCTACGCTGTCAATCGCAAACGGTGTATACTCACCTCGTCGACGTTTCGATGC
B26: NRC3_random_hg19_224_o1 (dsDNA)
DNA 1: GCCTTCCTAACTGAATCACCTCATCAACAGCTAAACGCGATTGACAGCGTAGAATGAAGG
DNA 2: CCTTCATTCTACGCTGTCAATCGCGTTTAGCTGTTGATGAGGTGATTCAGTTAGGAAGGC
B27: NRC3_wobSeed123_DR5_G21T_o1 (dsDNA)
DNA 1: GCCCTCGGAGGACAACAGGATGTCAGAGCTGCCAGAGCGATTGACAGCGTAGAATGAAGG
DNA 2: CCTTCATTCTACGCTGTCAATCGCTCTGGCAGCTCTGACATCCTGTTGTCCTCCGAGGGC
B28: NRC3_wobSeed57_DR2_T19G_o1 (dsDNA)
DNA 1: GCATCTCTAGGTAACAAGGTCAGTGAAAGAGAGGACGCGATTGACAGCGTAGAATGAAGG
DNA 2: CCTTCATTCTACGCTGTCAATCGCGTCCTCTCTTTCACTGACCTTGTTACCTAGAGATGC
B29: NRC3_wobSeed45_DR1_T11C_o1 (dsDNA)
DNA 1: GCTGTCAAAGCTCAAAGGTAACGTAAGTATCCACACGCGATTGACAGCGTAGAATGAAGG
DNA 2: CCTTCATTCTACGCTGTCAATCGCGTGTGGATACTTACGTTACCTTTGAGCTTTGACAGC
B30: NRC3_wobSeed112_DR4_G5T_o1 (dsDNA)
DNA 1: GCTATCCTAGGTCAGATCGGGCCAGTATACGCTATAGCGATTGACAGCGTAGAATGAAGG
DNA 2: CCTTCATTCTACGCTGTCAATCGCTATAGCGTATACTGGCCCGATCTGACCTAGGATAGC
B31: NRC3_wobSeed62_DR2_T16G_o1 (dsDNA)
DNA 1: GCTCTGCTAGGTCAGGTGGTCAGCTAACGAGCTGCCGCGATTGACAGCGTAGAATGAAGG
DNA 2: CCTTCATTCTACGCTGTCAATCGCGGCAGCTCGTTAGCTGACCACCTGACCTAGCAGAGC

This passage reports binding signal results from article PMC6555819, “Comprehensive study of nuclear receptor DNA binding provides a revised framework for understanding receptor specificity”.

Positions count from the first letter of the chain named.

Sequence of RARg:RXRa (P13631 whole entry, chain 1 of 2): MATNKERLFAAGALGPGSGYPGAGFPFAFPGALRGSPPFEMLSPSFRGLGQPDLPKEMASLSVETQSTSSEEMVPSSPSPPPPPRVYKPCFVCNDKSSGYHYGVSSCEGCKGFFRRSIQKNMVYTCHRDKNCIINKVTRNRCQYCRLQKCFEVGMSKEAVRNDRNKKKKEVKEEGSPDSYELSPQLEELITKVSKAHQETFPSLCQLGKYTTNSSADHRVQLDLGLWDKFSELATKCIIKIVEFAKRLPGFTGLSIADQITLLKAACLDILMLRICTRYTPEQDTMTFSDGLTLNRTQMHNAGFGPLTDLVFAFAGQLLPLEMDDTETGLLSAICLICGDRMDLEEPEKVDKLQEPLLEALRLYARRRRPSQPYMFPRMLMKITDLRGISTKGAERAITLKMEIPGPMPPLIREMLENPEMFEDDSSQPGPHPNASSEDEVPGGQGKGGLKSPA
Sequence of RARg:RXRa (P19793 whole entry, chain 2 of 2): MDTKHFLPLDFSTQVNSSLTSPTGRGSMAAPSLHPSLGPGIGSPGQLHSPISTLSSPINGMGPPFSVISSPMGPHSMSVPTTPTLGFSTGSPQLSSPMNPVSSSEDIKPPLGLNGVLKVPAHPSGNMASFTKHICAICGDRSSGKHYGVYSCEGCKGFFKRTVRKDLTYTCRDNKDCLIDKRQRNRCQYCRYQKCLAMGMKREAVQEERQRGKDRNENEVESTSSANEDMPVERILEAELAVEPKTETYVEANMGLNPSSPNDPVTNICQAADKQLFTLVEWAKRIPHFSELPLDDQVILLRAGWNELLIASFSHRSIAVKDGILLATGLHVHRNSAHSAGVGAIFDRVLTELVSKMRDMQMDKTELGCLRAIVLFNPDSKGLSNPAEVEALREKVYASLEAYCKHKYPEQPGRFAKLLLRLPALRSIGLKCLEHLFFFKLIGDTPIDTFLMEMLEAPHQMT

For the data set, the target named is RARg:RXRa (Homo sapiens, UniProt P13631;P19793 full;full). The data set can be described thus: no ligand; PBM; 270 nM : 90 nM RXRa; PBS pH 7.4, 2% milk, 0.02% Triton X-100, 1 mM DTT, BSA, 0.4 mg/ml salmon testes DNA. Conditions: tags: His kept;His cleaved; copies: 1;1; label: surface-attached array probe. The procedure, abridged:
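Custom Agilent 4×180K protein-binding microarrays carried double-stranded probes, each with a 34-nt variable region. These regions held direct-repeat seeds, single-nucleotide variants, half-site ablations and random human genomic background sequences. Ligand-free nuclear receptor dimers were incubated on the arrays for 1 h, antibodies against each partner (one per run) detected binding, and scanned fluorescence was regression-normalized. Binding z-scores take the random background probes as reference.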
Turning to B1, the binding signal was 3.1 PBM z-score against 500 random probes. The same measure for B2: 0.43 PBM z-score against 500 random probes; for B3: 0.25 PBM z-score against 500 random probes; for B4: 0.44 PBM z-score against 500 random probes. Turning to B5, the binding signal is 0.29 PBM z-score against 500 random probes. The same measure for B6: 0.22 PBM z-score against 500 random probes; for B7: 0.3 PBM z-score against 500 random probes; for B8: 3.2 PBM z-score against 500 random probes. The same measure for B9: 0.37 PBM z-score against 500 random probes; for B10: 0.45 PBM z-score against 500 random probes; for B11: 0.36 PBM z-score against 500 random probes. With B12 the figure was 0.29 PBM z-score against 500 random probes; with B13, 0.27 PBM z-score against 500 random probes; with B14, 0.4 PBM z-score against 500 random probes. On to B15, for which the binding signal is 0.42 PBM z-score against 500 random probes. Regarding B16, the binding signal is 0.32 PBM z-score against 500 random probes. The same measure for B17: 0.39 PBM z-score against 500 random probes; for B18: 0.38 PBM z-score against 500 random probes. In the case of B19, the binding signal was 0.33 PBM z-score against 500 random probes. With B20 the figure was 0.35 PBM z-score against 500 random probes; with B21, 0.23 PBM z-score against 500 random probes. The same measure for B22: -0.31 PBM z-score against 500 random probes; for B23: 0.49 PBM z-score against 500 random probes; for B24: 3.26 PBM z-score against 500 random probes.

Consider B25, for which the binding signal is 0.46 PBM z-score against 500 random probes. For the molecule B26, the binding signal is 0.38 PBM z-score against 500 random probes. The same measure for B27: 0.5 PBM z-score against 500 random probes; for B28: 3 PBM z-score against 500 random probes; for B29: 0.5 PBM z-score against 500 random probes. The same measure for B30: 3.16 PBM z-score against 500 random probes; for B31: 3.05 PBM z-score against 500 random probes.
